Series [1] has as its system myosin light chain (MLC) phosphorylation in HMVECs. As to the kind of experiment: MLC phosphorylation assay (Western blot). As to conditions: Ang-1 100 ng/ml added. It is filed as cell-based, human. Here is the method: After signal starvation with 0.25% FBS EBM-2 for 24 h, cells were treated with 100 ng/ml Ang-2 or vehicle for 0, 1, 3, and 6 hours. Phosphorylated myosin light chain (MLC-p) (phospho-serine 19) and GAPDH were detected by Western blot analysis. For human subject serum effects on HMVECs, serum was diluted to 5% with EBM-2 and filtered with low protein binding PVDF membrane (0.22 μm, Millipore Corp, Bedford, Mass.). Anti-MLC-phospho-serine-19 Ab was obtained from Abcam Inc.
For orientation: In western blotting, separated proteins are transferred to a membrane and probed.

For the next series, the system named is RhoA. Nature of the series: Rho activity assay (pull-down) in HMVEC-L. It is filed as cell-based, human. Here is the method:
These were performed and quantified using the commercially available kit according to the manufacturer's instruction (Cytoskeleton, Denver, Colo.). After signal starvation, HMVEC-L were treated with vehicle, Ang-1 (100 ng/ml) with or without inhibitor for the indicated time and harvested with lysis buffer. Following a brief centrifugation to remove cell debris, lysates from the cells containing equivalent protein concentrations were incubated for 60 minutes with 40 μL slurry of a GST-fusion protein composed of Rac1 or RhoA effector proteins coupled to agarose beads. After washing with lysis buffer, samples were subjected to immunoblotting and detected with anti-Rac1 or anti-RhoA antibody (Santa Cruz Biotechnology, Santa Cruz, Calif.). Whole cell lysates were also run to determine the total amount of Rac1 or RhoA protein.

The next series relates to HMVEC-L monolayer. As to the kind of experiment: Measurement of endothelial permeability in vitro (FITC-albumin). In kind it is cell-based, human. The procedure:
Coster Transwell membranes (Corning Inc. Corning, N.Y.) were coated with 0.5% Gelatin and cells were grown until confluence. Vehicle or proteins with FITC-albumin (1 mg/ml) was added to the luminal chamber for 4 hours, and samples were taken from both the luminal and abluminal chamber for fluorometry analysis. The readings were converted with the use of a standard curve to albumin concentration. These concentrations were then used in the following equation to determine the permeability coefficient of albumin (Pa).
[A] is abluminal concentration; t is time in seconds; A is area of membrane in cm^2; V is volume of abluminal chamber; and [L] is luminal concentration. siRNA Transfection: HMVEC-Ls were seeded and control small interfering RNA (siRNA) (Ambion, Ausin, Tex.) or siRNA directed to human p190RhoGAP (5′-[…]-3′ SEQ ID NO: 5 and 5′-[…]-3′ SEQ ID NO: 6) was transfected using SilentFect Lipid reagent (Bio-Rad) according to the manufacturer's instructions. The cells were used for each experiment 3 days after transfection. Almost 90-100% cells were transfected with siRNA (checked by fluorescent labeled siRNA). Down-regulation of p190RhoGAP was verified by immunoblotting. We tested two different siRNA for the experiment and obtained similar results.

For series [2], the system named is mice (female FVB strain), lung. As to the kind of experiment: Lung histology after LPS. As to conditions: Ang-1 10 μg ip x 2 doses. In kind it is in vivo, mouse. Here is the method: Mice were treated as above and lungs were harvested, fixed in 10% formalin, embedded in paraffin, sectioned, and stained with hematoxilin and eosin. In Vivo Delivery of siRNA: Delivery of siRNA into mice was performed by TransIT® Hydrodynamic delivery solution (Mires, Madision, Wis.) per the manufacturer's instruction. Mice were injected with either 10 μg control siRNA or 10 μg p190RhoGAP siRNA in 2 nil delivery solution injected into the tail vein over 7 seconds. Four days later, p190RhoGAP knockdown was confirmed by lysing organs in RIPA buffer and performing Western analysis as outlined above. In vivo permeability and histological examination were performed as described above.

In the next series the test system is p85 subunit of PI3K. Nature of the series: PI3K activity assay (p85 phosphorylation ELISA). It is filed as cell-based, human. The conditions noted are these: Ang-1 100 ng/ml, 15 minutes. Here is the method: After signal starvation, HMVEC-L were treated with vehicle or Ang-1 (100 ng/ml) for 15 minutes. Total and phosphorylated p85 subunits of PI3K were quantified using a commercial enzyme-linked immunosorbent assay according to the manufacturer's instruction (Active Motif, Carlsbad, Calif.). Phosphorylated PI3K p85 subunit was corrected by total PI3K.

The next series concerns Akt. As to the kind of experiment: Akt phosphorylation (Western blot) in HMVEC-L. It is filed as cell-based, human. The conditions noted are these: Ang-1 100 ng/ml, 15 minutes. Here is the method: HMVEC-L were washed with ice-cold PBS three times and lysed with ice-cold RIPA buffer (50 mM Tris-HCl pH7.4, 150 mM NaCl, 1% NP-40, 0.5% Sodium Deoxycholate, 0.1% SDS and 1 mM EDTA) supplemented with protease inhibitors (Roche Diagnostics, Indianapolis, Ind.), 1 mM NaF and 1 mM Na3VO4. Lysates were sonicated and centrifuged at 10,000 rpm for 10 minutes at 4° C., and supernatants were collected. Protein concentrations were determined by BCA protein assay with bovine serum albumin as standard (Pierce, Rockford, Ill.). Lysates were electrophoresed using NuPAGE system (Invitrogen Life Technologies, Franklin Lakes, N.J.) and transferred to PVDF membrane and immunoblotted with specific primary antibodies. Binding of primary antibodies was detected using horseradish peroxidase-conjugated secondary antibodies (Amersham Bioscience, Piscataway, N.J.) and SuperSignal WestDura (Pierce) as a chemiluminescence substrate. Primary antibodies were obtained from these suppliers: anti-phospho-Akt Ab (Ser 473), anti-Akt Ab and anti-phospho-myosin light chain 2 (Ser19) Ab were from Cell Signaling Technology; anti-GAPDH Ab was from Chemicon International (Temecula, Calif.).

The next series relates to p190RhoGAP. Nature of the series: p190RhoGAP phosphorylation in HMVEC-L. It is filed as cell-based, human. As to conditions: Ang-1 100 ng/ml. Here is the method:
We lysed HMVEC-L with Triton buffer (50 mM Tris-HCl pH 8.0, 150 mM NaCl, 1% Triton X 100, and 5 mM EDTA) supplemented with protease inhibitors (Roche Diagnostics), 1 mM NaF and 1 mM Na3VO4, adjusting protein concentration by BCA protein assay (Pierce) and incubated 200 μg of total protein with anti-Tie2-Ab (clone Ab33, Upstate, Lake Placid, N.Y.) or p190RhoGAP Ab (Transduction laboratory, Lexington, Ky.) for 3 hours, followed by incubation with protein A sepharose (Zymed, San Francisco, Calif.) for 2 hours at 4° C. After washing the beads, proteins were eluted by heating in SDS-sample buffer and detected by immunoblotting with anti-phospho-tyrosine (clone 4G10, Upstate), anti-Tie-2 Ab, or anti-p190RhoGAP Ab.

B1: Ang-1: Human recombinant angiopoietin-1 purchased from R&D systems; Tie-2 agonist, endogenous Ang-2 antagonist (protein, listed as Homo sapiens)
chain: MTVFLSFAFLAAILTHIGCSNQRRSPENSGRRYNRIQHGQCAYTFILPEHDGNCRESTTDQYNTNALQRDAPHVEPDFSSQKLQHLEHVMENYTQWLQKLENYIVENMKSEMAQIQQNAVQNHTATMLEIGTSLLSQTAEQTRKLTDVETQVLNQTSRLEIQLLENSLSTYKLEKQLLQQTNEILKIHEKNSLLEHKILEMEGKHKEELDTLKEEKENLQGLVTRQTYIIQELEKQLNRATTNNSVLQKQQLELMDTVHNLVNLCTKEGVLLKGGKREEEKPFRDCADVYQAGFNKSGIYTIYINNMPEPKKVFCNMDVNGGGWTVIQHREDGSLDFQRGWKEYKMGFGNPSGEYWLGNEFIFAITSQRQYMLRIELMDWEGNRAYSQYDRFHIGNEKQNYRLYLKGHTGTAGKQSSLILHGADFSTKDADNDNCMCKCALMLTGGWWFDACGPSNLNGMFYTAGQNHGKLNGIKWHYFKGPSYSLRSTTMMIRPLDF
As for B1, the “effect on MLC phosphorylation caused by high Ang-2 serum (CE2)” value in series [1] was “inhibited”. The RhoA activity result with RhoA (HMVEC-L treated with Ang-1) is recorded as “decreased 30 minutes after”. In addition, the “effect on endotoxin-induced RhoA activity” value in the series on RhoA (co-incubation with Ang-1) is “reversed”. Further, the basal monolayer permeability entry in the series on HMVEC-L monolayer (Ang-1 100 ng/ml, 4 hours) was “somewhat decreased”. In the series on HMVEC-L monolayer (LPS with Ang-1), the “effect on endotoxin-induced permeability” value is recorded as “completely reversed”. Further, the “effect on LPS-induced edema and leukocyte infiltration” value in series [2] is reported as “reversed”. Besides, in the series on p85 subunit of PI3K, the “phosphorylation of the p85 subunit of PI3K” value is recorded as “induces phosphorylation of the p85 subunit of PI3K”. The Akt phosphorylation result with Akt was “induces Akt phosphorylation”. Moreover, the “phosphorylation of p190RhoGAP” value with p190RhoGAP is “induces phosphorylation of p190RhoGAP”.
